Laboratory results taken from patent US20250270315A1 (ELPISCIENCE SUZHOU BIOPHARMA, published 2025).

T1: C57BL/6 mouse SIRPα ECD recombinant protein (6×His tagged) (C57BL/6 mouse, UniProt P97797 32-373)
T1 construct: extracellular domain; Bought from Biointron; not shown: 6×His tag
T1 sequence (looked up): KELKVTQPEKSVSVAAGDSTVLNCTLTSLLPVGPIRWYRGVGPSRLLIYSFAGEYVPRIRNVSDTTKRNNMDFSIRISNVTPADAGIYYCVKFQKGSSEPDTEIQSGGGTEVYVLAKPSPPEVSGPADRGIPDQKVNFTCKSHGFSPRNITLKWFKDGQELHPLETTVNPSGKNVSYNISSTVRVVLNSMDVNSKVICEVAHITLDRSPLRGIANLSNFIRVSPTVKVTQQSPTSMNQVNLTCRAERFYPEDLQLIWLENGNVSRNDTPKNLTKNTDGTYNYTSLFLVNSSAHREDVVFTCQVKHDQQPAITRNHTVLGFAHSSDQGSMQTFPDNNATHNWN


Experiments:
[1] = target: T2, human SIRPβ ECD recombinant protein (6×His tagged) (human, UniProt O00241 30-371); assay: ELISA, hSIRPβ ECD
T2 construct: extracellular domain; Bought from Sino Biological; also called hSIRPβ ECD; not shown: 6×His tag
Source text: (§1) Binding activity of the purified chimeric antibodies against SIRPβ and SIRPBI was detected by ELISA assay using recombinant proteins of human SIRPβ ECD (FIGS. 3A and 3B), human SIRPBI ECD (FIGS. 3D and 3E) and FACS assay using CHOK 1 cells stably expressing human SIRPB (FIG. 3C).

[2] = target: T3, human SIRPβL ECD recombinant protein (6×His tagged) (human, UniProt Q5TFQ8 30-371); assay: ELISA, hSIRPβI ECD
T3 construct: given variously as SIRPBL, SIRPBI and SIRPβI; Bought from Biointron; also called human SIRPBL ECD; human SIRPBI ECD
Source text: as §1

[3] = target: full length human SIRPα v1 with a small beta-gal fragment (ED) fused to its C-terminal, expressed in K562 … (human, UniProt P78324 31-504); assay: cell-based or functional assay
[4] = target: T4, full length human SIRPα v1 stably expressed on CHOK1 or 293F cells (human, UniProt P78324 31-504); assay: FACS, CHOK1-hSIRPα v1 cells
T4 construct: whole, on cells; also called CHOK1-human SIRPα v1; CHOK1-hSIRPα v1

[5] = target: T5, human SIRPγ stably expressed on 293F cells (human, UniProt Q9P1W8 29-387); assay: FACS, 293F-human SIRPγ cells
T5 construct: whole, on cells

[6] = target: Human SIRPα v1 (antigen of the Octet and Biacore affinity measurements) (human, UniProt P78324 31-370, limits assumed); assay: BLI (Octet), 1:1 binding model
Method: The purified chimeric antibodies were characterized for binding affinity against human SIRPα v1, human SIRPα v2 using Bio-Layer Interferometry technology (Octet system). The association and dissociation curves were fit with 1:1 binding model, and the Ka/Kd/KD values for each antibody were calculated.

[7] = target: T1, C57BL/6 mouse SIRPα ECD recombinant …; assay: ELISA, recombinant C57BL/6 mouse SIRPα ECD
Source text: Species cross reactivity of purified chimeric antibodies was detected by ELISA assay using recombinant protein of C57BL/6 mouse SIRPα ECD (FIG. 5A) and FACS assay using CHOK 1 cells stably expressing cyno SIRPα (FIGS. 5B and 5C). All antibodies as tested bind to cyno SIRPα at different levels but have no species cross reactivity against C57BL/6 mouse SIRPα.

[8] = target: T6, human SIRPα v1 ECD recombinant protein (tag not given) (human, UniProt P78324 31-373); assay: competitive ELISA, mFc-CD47 ECD on coated SIRPα v1 ECD
T6 construct: extracellular domain; also called biotin labeled soluble human SIRPα v1 ECD recombinant protein; ELISA microplate coated human SIRPα v1 ECD
Method: (§2) Competitive ELISA assay was used to determine whether the purified chimeric antibodies can block CD47 and SIRPα interaction. Briefly, antibody and mFc tagged human CD47 ECD recombinant protein were co-incubated with ELISA microplate coated human SIRPα v1 ECD (FIGS. 6A and 6B) or human SIRPα v2 ECD (FIGS. 7A and 7B) recombinant protein. After washing, HRP labeled anti-mouse Fc 2nd antibody (Sigma) was added and incubated at 37° C. for 1 hour. Then, 100 μl/well of TMB solution (Biotechnology) was added. After incubation for 15 minutes at room temperature, the reaction was stopped by the addition of 50 μl of 1N HCl. OD 450 nm was read. Blocking ratio was determined by blockade of human CD47 ECD recombinant protein binding to ELISA microplate coated human SIRPα ECD recombinant protein. Other than 005, all antibodies as tested can block interaction between human CD47 and different human SIRPα variants.

[9] = target: T7, human SIRPα v2 ECD recombinant protein (tag not given) (human); assay: competitive ELISA, mFc-CD47 ECD on coated SIRPα v2 ECD
T7 construct: extracellular domain; also called ELISA microplate coated human SIRPα v2 ECD
Method: as §2

[10] = target: T8, cyno SIRPγ ECD recombinant protein (cyno); assay: ELISA, cyno SIRPγ ECD
T8 construct: extracellular domain

[11] = target: T9, human SIRPβ stably expressed on CHOK1 cells (human, UniProt O00241 30-398); assay: FACS, CHOK1-hSIRPβ cells
T9 construct: whole, on cells; also called CHOK1-human SIRPB; CHOK1-hSIRPβ
Source text: as §1

[12] = target: T4, full length human SIRPα v1 stably …; assay: competitive FACS, mFc-CD47 ECD on CHOK1-human SIRPα v1 cells
Method: Competitive FACS assay was also set up to further compare the blocking activity of the humanized antibodies and reference antibodies. Briefly antibody and mFc tagged human CD47 ECD recombinant protein were co-incubated with CHOK1 cells stably expressing human SIRPα v1 (FIG. 16A) or human SIRPα v2 (FIG. 16B). After washing, dye labeled anti-mouse Fc 2nd antibody (Sigma) was added and incubated at 37° C. for 1 hour. Fluorescence intensity was detected. Blocking ratio was determined by blockade of human CD47 ECD recombinant protein binding to SIRPα expressed CHOK1 cells. […] In particular, HEFLB doesn't work at all for human SIRPα v2.

[13] = target: T10, mFc tagged human SIRPα v1 ECD recombinant protein (human, UniProt P78324 31-373); assay: competitive ELISA binning, mFc-SIRPα v1 ECD; competitor 025c
T10 construct: extracellular domain; Bought from Biointron; not shown: mouse IgG Fc (mFc) tag
Method: (§3) Competitive ELISA assay was used for epitope binning of purified chimeric antibodies. Briefly excessive competitor antibody and mFc tagged human SIRPα v1 ECD recombinant protein were co-incubated with ELISA microplate coated antibody. After washing, HRP labeled anti-mouse Fc 2nd antibody (Sigma) was added and incubated at 37° C. for 1 hour. Then, 100 μl/well of TMB solution (Biotechnology) was added. After incubation for 15 minutes at room temperature, the reaction was stopped by the addition of 50 μl of 1N HCl. OD 450 nm was read. Competition ratio was calculated. The antibodies that can compete each other for binding to SIRPα may have related binding epitopes.

[14] = target: T10, mFc tagged human SIRPα v1 ECD …; assay: competitive ELISA binning, mFc-SIRPα v1 ECD; competitor 042c
Method: as §3

[15] = target: T10, mFc tagged human SIRPα v1 ECD …; assay: competitive ELISA binning, mFc-SIRPα v1 ECD; competitor hu1H9G4
Method: as §3

T4 sequence (P78324 31-504): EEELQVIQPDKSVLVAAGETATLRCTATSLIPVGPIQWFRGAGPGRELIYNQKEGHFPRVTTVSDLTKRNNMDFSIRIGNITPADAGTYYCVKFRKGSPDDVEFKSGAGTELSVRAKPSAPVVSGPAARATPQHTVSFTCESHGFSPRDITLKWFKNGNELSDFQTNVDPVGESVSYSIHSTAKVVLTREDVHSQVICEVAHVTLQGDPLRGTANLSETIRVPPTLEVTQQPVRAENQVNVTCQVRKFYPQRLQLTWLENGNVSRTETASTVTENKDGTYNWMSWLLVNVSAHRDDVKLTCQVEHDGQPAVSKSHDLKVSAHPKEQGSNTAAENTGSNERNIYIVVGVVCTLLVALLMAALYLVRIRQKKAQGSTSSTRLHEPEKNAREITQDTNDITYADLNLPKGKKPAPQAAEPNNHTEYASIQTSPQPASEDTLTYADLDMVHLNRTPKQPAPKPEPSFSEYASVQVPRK
Sequence of full length human SIRPα v1 with a small beta-gal fragment (ED) fused to its C-terminal, expressed in K562 … (P78324 31-504): as above
Sequence of Human SIRPα v1 (antigen of the Octet and Biacore affinity measurements) (P78324 31-370 limits assumed): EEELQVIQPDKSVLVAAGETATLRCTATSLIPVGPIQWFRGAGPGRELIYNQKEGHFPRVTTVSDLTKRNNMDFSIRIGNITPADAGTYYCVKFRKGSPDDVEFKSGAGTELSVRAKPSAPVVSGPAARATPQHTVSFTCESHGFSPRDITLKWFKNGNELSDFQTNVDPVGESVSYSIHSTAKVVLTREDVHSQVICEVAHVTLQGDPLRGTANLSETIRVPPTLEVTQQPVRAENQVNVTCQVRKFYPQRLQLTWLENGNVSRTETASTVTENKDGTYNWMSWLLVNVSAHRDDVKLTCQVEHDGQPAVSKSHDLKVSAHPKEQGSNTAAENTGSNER
T2 sequence (O00241 30-371): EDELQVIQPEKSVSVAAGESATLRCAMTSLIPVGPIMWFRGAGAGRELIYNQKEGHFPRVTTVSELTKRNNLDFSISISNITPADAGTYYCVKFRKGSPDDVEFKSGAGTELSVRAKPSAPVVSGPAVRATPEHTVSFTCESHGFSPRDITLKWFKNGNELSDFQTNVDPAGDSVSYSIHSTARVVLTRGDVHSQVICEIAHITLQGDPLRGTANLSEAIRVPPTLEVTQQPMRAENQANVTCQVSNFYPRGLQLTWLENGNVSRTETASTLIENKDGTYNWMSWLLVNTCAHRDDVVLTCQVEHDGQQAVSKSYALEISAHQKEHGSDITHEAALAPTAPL
T5 sequence (Q9P1W8 29-387): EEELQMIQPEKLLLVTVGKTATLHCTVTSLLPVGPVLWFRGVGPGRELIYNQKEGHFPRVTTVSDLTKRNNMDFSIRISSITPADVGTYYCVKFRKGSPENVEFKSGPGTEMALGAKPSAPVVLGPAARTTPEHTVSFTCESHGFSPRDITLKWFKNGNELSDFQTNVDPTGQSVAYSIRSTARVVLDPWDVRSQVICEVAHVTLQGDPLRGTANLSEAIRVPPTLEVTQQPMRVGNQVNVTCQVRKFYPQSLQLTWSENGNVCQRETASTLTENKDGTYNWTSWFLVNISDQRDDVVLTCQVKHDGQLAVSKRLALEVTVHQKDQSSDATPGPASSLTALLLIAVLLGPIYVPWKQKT
T6 sequence (P78324 31-373): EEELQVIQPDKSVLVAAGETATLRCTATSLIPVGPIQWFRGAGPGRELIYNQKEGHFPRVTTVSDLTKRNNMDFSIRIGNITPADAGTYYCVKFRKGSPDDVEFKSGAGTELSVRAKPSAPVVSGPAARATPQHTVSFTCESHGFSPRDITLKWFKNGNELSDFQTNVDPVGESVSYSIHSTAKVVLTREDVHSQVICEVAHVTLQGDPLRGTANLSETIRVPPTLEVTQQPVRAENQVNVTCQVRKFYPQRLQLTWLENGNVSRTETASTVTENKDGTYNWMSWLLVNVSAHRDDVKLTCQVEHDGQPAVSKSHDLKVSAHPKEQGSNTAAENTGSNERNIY
T10 sequence (P78324 31-373): as above
T3 sequence (Q5TFQ8 30-371 limits assumed): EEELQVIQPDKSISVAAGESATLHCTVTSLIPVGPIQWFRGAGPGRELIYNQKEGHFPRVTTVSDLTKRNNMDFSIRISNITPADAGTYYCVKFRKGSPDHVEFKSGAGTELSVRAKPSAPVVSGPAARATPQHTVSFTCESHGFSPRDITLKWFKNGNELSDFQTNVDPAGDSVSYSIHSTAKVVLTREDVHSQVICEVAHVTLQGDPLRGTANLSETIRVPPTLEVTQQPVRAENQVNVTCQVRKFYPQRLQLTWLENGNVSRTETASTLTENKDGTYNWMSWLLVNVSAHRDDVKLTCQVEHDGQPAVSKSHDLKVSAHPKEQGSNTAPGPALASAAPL
T9 sequence (O00241 30-398): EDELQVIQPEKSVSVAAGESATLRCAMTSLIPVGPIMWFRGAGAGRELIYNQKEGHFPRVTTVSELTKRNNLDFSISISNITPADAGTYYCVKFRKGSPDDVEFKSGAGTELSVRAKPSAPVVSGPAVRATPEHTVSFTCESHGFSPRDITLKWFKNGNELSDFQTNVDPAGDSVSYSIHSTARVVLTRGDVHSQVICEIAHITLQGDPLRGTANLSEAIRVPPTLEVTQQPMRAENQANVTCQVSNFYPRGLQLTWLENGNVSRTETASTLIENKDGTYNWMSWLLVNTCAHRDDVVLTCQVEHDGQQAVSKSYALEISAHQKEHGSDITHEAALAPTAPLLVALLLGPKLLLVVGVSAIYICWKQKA

EC50 [1] [nM] | TOP OD450 [1] [OD450] | EC50 [2] [nM] | TOP OD450 [2] [OD450] | SHP-1 recruitment blocking, IC50 [3] [nM] | SHP-1 recruitment blocking, TOP blocking (%) [3] [%] | EC50 [4] [nM] | TOP MFI [4] [MFI] | EC50 [5] [nM] | TOP MFI [5] [MFI] | Kd [6] [nM] | koff [6] [s⁻¹] | kon [6] [M⁻¹ s⁻¹] | binding result [7] | IC50 [8] [nM] | TOP blocking (%) [8] [%] | IC50 [9] [nM] | TOP blocking (%) [9] [%] | also measured | Binder
0.03 | 2.75 | 0.7 | 3.35 | 0.07 | 66.9 | 1.45 | 69800 | 34.1 | 2860 | 2.25 | 0.00213 | 944000 | no binding | 2.63 | 97 | 54.1 | 84.4 | – | 059c (antibody, V domains shown, also called chimeric antibody 059c) VH: QVQLQQSGPELVKPGASVKMSCKASGYTFSEYVLSWVKQRTGQGLEWIGEIYPGTITTYYNEKFKGKATLTADKSSNTAYIQLTSLTSEDSAVYFCGRFYDYDGGWFAYWGQGTLLTVSA VL: ENVLTQSPEKMAVSLGQKVTMTCSASSSVSSSDLHWYQQKSGASPKPLIHGTSNLASGVPARFSGSGSGTSYSLTISSVEAEDAATYYCQQWSGYPWTFGGGTNLEIK
0.03 | 3.22 | 0.24 | 2.74 | 0.1 | 59.5 | 1.93 | 74600 | 0.52 | 2720 | 3.48 | 0.00277 | 795000 | – | 1.91 | 97.5 | 5.74 | 98.2 | EC50 [10]: 0.48 nM; TOP OD450 [10]: 1.81 OD450; EC50 [11]: 0.3 nM; TOP MFI [11]: 7140 MFI; IC50 [12]: 0.44 nM; TOP blocking (%) [12]: 97.2%; % Competition [13]: 14.5%; % Competition [14]: 82.6%; % Competition [15]: 90.5% | hu1H9G4 (antibody, V domains shown) VH: QVQLVQSGAEVKKPGASVKVSCKASGYTFTSYWITWVKQAPGQGLEWIGDIYPGSGSTNHIEKFKSKATLTVDTSISTAYMELSRLRSDDTAVYYCATGYGSSYGYFDYWGQGTLVTVSS VL: DIQMTQSPSSLSASVGDRVTITCRASENIYSYLAWYQQKPGKAPKLLIYTAKTLAEGVPSRFSGSGSGTDFTLTISSLQPEDFATYYCQHQYGPPFTFGQGTKLELK
1.53 | 2.98 | 0.3 | 2.66 | 2.97 | 44.5 | 2.6 | 76500 | – | – | 5.97 | 0.00327 | 548000 | no binding | 2.86 | 94.1 | 5.1 | 76.3 | – | 071c (antibody, V domains shown, also called chimeric antibody 071c) VH: QIQLVQSGPELKKPGETVKISCKASGYTFTTYGMSWVKQAPGKGLKWMVWINTYSGVPTYADDFQGRFAFSLETSASTSYLQINNLRNEDTATYFCARDPHYYGTSPAWFAYWGQGTLVTVSA VL: DIVMTQSQKFMSTTIGDRVIITCKASQIVGIAVAWYQQKPGQSPKLLIYSASNRFTGVPDRFTGSGSGTDFTLTISNMQSEDLADYFCQQYSTYPFTFGSGTKLEIK
0.04 | 2.97 | 0.4 | 3.1 | 0.09 | 73.5 | 1.49 | 80000 | 0.09 | 3300 | 0.338 | 0.000303 | 897000 | no binding | 2.32 | 96.4 | 2.45 | 96.7 | – | 015c (antibody, V domains shown, also called chimeric antibody 015c) VH: EVQLQQSGVEVVQPGASVKLSCTASGFNIEAYYMHWVKQRTEQGLEWIGRIDPEDGESKYAPKFQGKATMTADTSSSTAYLQLSSLTSDDTAVYYCVRGSYEYWGQGTTLTVSS VL: QIVLTQSPAIMSASPGEKVTLTCSASSSVSSSYLYWYQQKPGSSPKLWIYSTSNLASGVPPRFSGSGSGTSYSLTISSMQAEDAASYFCYQWSSYPYTFGGGTKLEIK
